According to PMC5114395:

Target: Ku heterodimer (Ku70 and Ku80) (UniProt P12956)
Chain of UniProt P12956 (P12956 whole entry, chain 1 of 2): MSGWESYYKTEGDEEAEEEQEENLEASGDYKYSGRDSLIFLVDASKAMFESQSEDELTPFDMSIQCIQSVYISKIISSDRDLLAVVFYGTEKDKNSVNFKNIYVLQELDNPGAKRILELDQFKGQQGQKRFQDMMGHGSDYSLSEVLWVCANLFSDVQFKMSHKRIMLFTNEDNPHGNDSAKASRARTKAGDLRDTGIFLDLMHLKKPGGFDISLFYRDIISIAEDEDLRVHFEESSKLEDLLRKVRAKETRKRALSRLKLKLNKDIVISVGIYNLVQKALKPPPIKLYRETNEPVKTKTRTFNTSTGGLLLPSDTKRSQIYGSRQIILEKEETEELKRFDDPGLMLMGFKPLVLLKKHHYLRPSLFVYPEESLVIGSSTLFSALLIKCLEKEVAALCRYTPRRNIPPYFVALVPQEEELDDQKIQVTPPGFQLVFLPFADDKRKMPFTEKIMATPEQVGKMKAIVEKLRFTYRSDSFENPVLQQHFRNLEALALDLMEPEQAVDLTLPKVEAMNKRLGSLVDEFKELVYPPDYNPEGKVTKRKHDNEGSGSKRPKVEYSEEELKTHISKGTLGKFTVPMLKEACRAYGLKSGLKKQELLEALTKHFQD
Chain of UniProt P12956 (P13010 whole entry, chain 2 of 2, further chain): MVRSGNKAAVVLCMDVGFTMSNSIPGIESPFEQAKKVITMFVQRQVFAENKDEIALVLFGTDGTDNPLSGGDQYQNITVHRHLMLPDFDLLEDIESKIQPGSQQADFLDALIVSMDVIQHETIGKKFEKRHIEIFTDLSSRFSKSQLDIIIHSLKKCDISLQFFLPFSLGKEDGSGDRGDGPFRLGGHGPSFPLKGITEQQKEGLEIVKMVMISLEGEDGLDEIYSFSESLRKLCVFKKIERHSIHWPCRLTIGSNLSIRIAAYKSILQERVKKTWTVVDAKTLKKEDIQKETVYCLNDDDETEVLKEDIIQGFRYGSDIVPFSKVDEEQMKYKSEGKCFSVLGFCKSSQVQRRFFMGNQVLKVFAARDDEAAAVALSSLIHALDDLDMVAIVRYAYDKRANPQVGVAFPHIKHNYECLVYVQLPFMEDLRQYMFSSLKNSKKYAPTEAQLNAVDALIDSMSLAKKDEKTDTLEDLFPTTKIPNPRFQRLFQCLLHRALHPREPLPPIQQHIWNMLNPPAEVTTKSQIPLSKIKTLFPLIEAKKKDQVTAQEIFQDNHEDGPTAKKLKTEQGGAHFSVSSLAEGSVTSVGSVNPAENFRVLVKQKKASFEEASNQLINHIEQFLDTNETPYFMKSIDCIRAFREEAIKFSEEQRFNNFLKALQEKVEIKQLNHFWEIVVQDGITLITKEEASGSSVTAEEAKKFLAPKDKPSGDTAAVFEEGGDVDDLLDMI

NHEJ efficiency of blunt-ended DNA with Ku, DNA-PKcs, Artemis, X4·LIV and Pol μ, without or with 500 nM PAXX (Fig. 7B, lanes 12–15): 2 fold
Substance: PAXX (paralog of XRCC4 and XLF) (from UniProt Q9BUH6 1-204) (natural protein)
